Results: the supplement of paper PMC9112550, “Optimization of the antimicrobial peptide Bac7 by deep mutational scanning” (BMC Biology, 2022)

Tested on: Escherichia coli TOP10
Experiment: shrunken log2 fold change of peptide-encoding DNA abundance (4.5 h post-induction vs induction); higher = less antimicrobial activity (less host growth inhibition)
Conditions: time post-induction: 4.5 h; library: site-saturation at positions 5, 18, 19, 20
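Note: peptides expressed intracellularly from a pBAD plasmid library in pooled LB shake-flask culture, induced with 0.3% L-arabinose, DNA abundance read by NGS, three biological replicates, DESeq2 with apeglm shrinkage.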

Sequence	shrunken log2 fold change
RRIRTRPPRLPRPRPRPCKHPRP	-0.0101
RRIRTRPPRLPRPRPRPCLGPRP	-0.534
RRIRTRPPRLPRPRPRPCLHPRP	-1.17
RRIRTRPPRLPRPRPRPCMRPRP	-0.0225
RRIRTRPPRLPRPRPRPCNLPRP	-0.00247
RRIRTRPPRLPRPRPRPCPGPRP	-0.232
RRIRTRPPRLPRPRPRPCPIPRP	-0.0712
RRIRTRPPRLPRPRPRPCPKPRP	0.0604
RRIRTRPPRLPRPRPRPCRNPRP	-0.533
RRIRTRPPRLPRPRPRPCTKPRP	0.0197
RRIRTRPPRLPRPRPRPCTRPRP	-0.287
RRIRTRPPRLPRPRPRPCVCPRP	-0.206
RRIRTRPPRLPRPRPRPCVDPRP	0.0267
RRIRTRPPRLPRPRPRPCVSPRP	-0.221
RRIRTRPPRLPRPRPRPCWWPRP	0.636
RRIRTRPPRLPRPRPRPCYLPRP	-0.468
RRIRTRPPRLPRPRPRPDAWPRP	0.285
RRIRTRPPRLPRPRPRPDCIPRP	-0.0428
RRIRTRPPRLPRPRPRPDCQPRP	-0.107
RRIRTRPPRLPRPRPRPDCRPRP	0.106
RRIRTRPPRLPRPRPRPDEFPRP	-0.00523
RRIRTRPPRLPRPRPRPDELPRP	-0.0838
RRIRTRPPRLPRPRPRPDFCPRP	-0.311
RRIRTRPPRLPRPRPRPDFHPRP	-0.336
RRIRTRPPRLPRPRPRPDFNPRP	-0.177

Sequence	shrunken log2 fold change
RRIRTRPPRLPRPRPRPDGEPRP	0.0799
RRIRTRPPRLPRPRPRPDICPRP	0.0407
RRIRTRPPRLPRPRPRPDLIPRP	-0.0343
RRIRTRPPRLPRPRPRPDLKPRP	0.156
RRIRTRPPRLPRPRPRPDMDPRP	0.00854
RRIRTRPPRLPRPRPRPDNNPRP	-0.48
RRIRTRPPRLPRPRPRPDPAPRP	0.0522
RRIRTRPPRLPRPRPRPDQEPRP	0.105
RRIRTRPPRLPRPRPRPDQKPRP	-0.056
RRIRTRPPRLPRPRPRPDQQPRP	-0.0173
RRIRTRPPRLPRPRPRPDRPPRP	0.188
RRIRTRPPRLPRPRPRPDTVPRP	-0.0391
RRIRTRPPRLPRPRPRPDVKPRP	-0.521
RRIRTRPPRLPRPRPRPDVQPRP	0.0493
RRIRTRPPRLPRPRPRPDWNPRP	-0.39
RRIRTRPPRLPRPRPRPDWRPRP	0.0352
RRIRTRPPRLPRPRPRPEATPRP	1.05
RRIRTRPPRLPRPRPRPECYPRP	-0.0535
RRIRTRPPRLPRPRPRPEDQPRP	0.112
RRIRTRPPRLPRPRPRPEEQPRP	0.0262
RRIRTRPPRLPRPRPRPEGGPRP	0.203
RRIRTRPPRLPRPRPRPEHEPRP	-0.109
RRIRTRPPRLPRPRPRPEHNPRP	-0.353
RRIRTRPPRLPRPRPRPEIYPRP	-0.329
RRIRTRPPRLPRPRPRPEKLPRP	-0.0188

Sequence	shrunken log2 fold change
RRIRTRPPRLPRPRPRPELEPRP	0.0188
RRIRTRPPRLPRPRPRPEMEPRP	0.0702
RRIRTRPPRLPRPRPRPENMPRP	-0.468
RRIRTRPPRLPRPRPRPENVPRP	-0.0181
RRIRTRPPRLPRPRPRPEPIPRP	0.226
RRIRTRPPRLPRPRPRPERAPRP	0.55
RRIRTRPPRLPRPRPRPERDPRP	0.0175
RRIRTRPPRLPRPRPRPERHPRP	-0.0333
RRIRTRPPRLPRPRPRPESCPRP	0.145
RRIRTRPPRLPRPRPRPESEPRP	-0.0433
RRIRTRPPRLPRPRPRPETDPRP	-0.0144
RRIRTRPPRLPRPRPRPETEPRP	-0.016
RRIRTRPPRLPRPRPRPETGPRP	-0.00371
RRIRTRPPRLPRPRPRPETLPRP	0.0577
RRIRTRPPRLPRPRPRPEVAPRP	0.0197
RRIRTRPPRLPRPRPRPEWFPRP	0.0821
RRIRTRPPRLPRPRPRPEWIPRP	0.0842
RRIRTRPPRLPRPRPRPEWMPRP	-0.048
RRIRTRPPRLPRPRPRPFAFPRP	0.0192
RRIRTRPPRLPRPRPRPFCTPRP	-0.316
RRIRTRPPRLPRPRPRPFDIPRP	-0.018
RRIRTRPPRLPRPRPRPFDKPRP	-0.154
RRIRTRPPRLPRPRPRPFDNPRP	-1.32
RRIRTRPPRLPRPRPRPFDVPRP	-0.243
RRIRTRPPRLPRPRPRPFEHPRP	-0.32

Sequence	shrunken log2 fold change
RRIRTRPPRLPRPRPRPFEIPRP	0.0711
RRIRTRPPRLPRPRPRPFFEPRP	0.123
RRIRTRPPRLPRPRPRPFGKPRP	-0.00963
RRIRTRPPRLPRPRPRPFGLPRP	0.0236
RRIRTRPPRLPRPRPRPFHSPRP	-0.137
RRIRTRPPRLPRPRPRPFKLPRP	-0.0476
RRIRTRPPRLPRPRPRPFKMPRP	-0.184
RRIRTRPPRLPRPRPRPFKRPRP	0.122
RRIRTRPPRLPRPRPRPFLFPRP	-0.303
RRIRTRPPRLPRPRPRPFMHPRP	-0.547
RRIRTRPPRLPRPRPRPFPQPRP	-0.042
RRIRTRPPRLPRPRPRPFQIPRP	-0.103
RRIRTRPPRLPRPRPRPFRQPRP	0.0156
RRIRTRPPRLPRPRPRPFSAPRP	0.0716
RRIRTRPPRLPRPRPRPFTTPRP	-0.0286
RRIRTRPPRLPRPRPRPFVIPRP	-0.488
RRIRTRPPRLPRPRPRPGCIPRP	-0.22
RRIRTRPPRLPRPRPRPGCRPRP	0.235
RRIRTRPPRLPRPRPRPGEAPRP	0.282
RRIRTRPPRLPRPRPRPGELPRP	-0.108
RRIRTRPPRLPRPRPRPGFWPRP	0.199
RRIRTRPPRLPRPRPRPGHCPRP	-0.0671
RRIRTRPPRLPRPRPRPGHEPRP	0.0552
RRIRTRPPRLPRPRPRPGHQPRP	-0.199
RRIRTRPPRLPRPRPRPGHYPRP	-0.137

Sequence	shrunken log2 fold change
RRIRTRPPRLPRPRPRPGIRPRP	-0.0147
RRIRTRPPRLPRPRPRPGKQPRP	-0.184
RRIRTRPPRLPRPRPRPGKYPRP	-0.755
RRIRTRPPRLPRPRPRPGMYPRP	-0.3
RRIRTRPPRLPRPRPRPGNTPRP	-0.0393
RRIRTRPPRLPRPRPRPGQKPRP	0.0923
RRIRTRPPRLPRPRPRPGQPPRP	0.161
RRIRTRPPRLPRPRPRPGRRPRP	0.244
RRIRTRPPRLPRPRPRPGTSPRP	-0.043
RRIRTRPPRLPRPRPRPGVPPRP	0.202
RRIRTRPPRLPRPRPRPGVWPRP	0.631
RRIRTRPPRLPRPRPRPGWAPRP	0.622
RRIRTRPPRLPRPRPRPGYHPRP	-0.315
RRIRTRPPRLPRPRPRPHCIPRP	-0.489
RRIRTRPPRLPRPRPRPHDWPRP	0.213
RRIRTRPPRLPRPRPRPHFMPRP	-0.339
RRIRTRPPRLPRPRPRPHFQPRP	-0.294
RRIRTRPPRLPRPRPRPHGYPRP	-0.267
RRIRTRPPRLPRPRPRPHHMPRP	-0.321
RRIRTRPPRLPRPRPRPHHVPRP	0.0387
RRIRTRPPRLPRPRPRPHHYPRP	-0.46
RRIRTRPPRLPRPRPRPHINPRP	-0.454
RRIRTRPPRLPRPRPRPHLAPRP	0.159
RRIRTRPPRLPRPRPRPHLMPRP	-0.139
RRIRTRPPRLPRPRPRPHMMPRP	-0.586

Sequence	shrunken log2 fold change
RRIRTRPPRLPRPRPRPHNDPRP	-1.58
RRIRTRPPRLPRPRPRPHNVPRP	-0.141
RRIRTRPPRLPRPRPRPHNYPRP	-0.329
RRIRTRPPRLPRPRPRPHPHPRP	0.0583
RRIRTRPPRLPRPRPRPHPTPRP	0.106
RRIRTRPPRLPRPRPRPHSQPRP	-0.101
RRIRTRPPRLPRPRPRPHTHPRP	-0.873
RRIRTRPPRLPRPRPRPHTWPRP	-0.281
RRIRTRPPRLPRPRPRPHVAPRP	0.268
RRIRTRPPRLPRPRPRPHVDPRP	0.0574
RRIRTRPPRLPRPRPRPHVKPRP	-0.126
RRIRTRPPRLPRPRPRPHYMPRP	-0.476
RRIRTRPPRLPRPRPRPHYPPRP	-0.782
RRIRTRPPRLPRPRPRPIASPRP	-0.0997
RRIRTRPPRLPRPRPRPICRPRP	0.0229
RRIRTRPPRLPRPRPRPIEMPRP	-0.25
RRIRTRPPRLPRPRPRPIEYPRP	-0.233
RRIRTRPPRLPRPRPRPIGVPRP	-0.0262
RRIRTRPPRLPRPRPRPIIDPRP	-0.000898
RRIRTRPPRLPRPRPRPIINPRP	-0.0706
RRIRTRPPRLPRPRPRPILAPRP	0.00499
RRIRTRPPRLPRPRPRPILKPRP	-0.348
RRIRTRPPRLPRPRPRPIMAPRP	-0.281
RRIRTRPPRLPRPRPRPIMFPRP	-0.937
RRIRTRPPRLPRPRPRPIMRPRP	0.25
